The test system of one data set is O=C(O)C(=O)CCO. Put plainly: OHB/pyruvate reductase assay, Oc-LdhA. The data set is classed as biochemical, Oryctalagus cuniculus. The conditions noted are these: other: pH 7, 37° C., 0.25 mM NADH. The source says:
(§1) The genes coding for (L)-malate dehydrogenase in Escherichia coli, Ec-mdh (SEQ ID NO: 1), (D)-lactate dehydrogenase in E. coli, Ec-ldhA (SEQ ID NO: 3), (L)-lactate dehydrogenase of Lactococcus lactis, Ll-ldhA (SEQ ID NO: 5), (L)-lactate dehydrogenase of Bacillus subtilis, Bs-ldh (SEQ ID NO: 7), (L)-lactate dehydrogenase of Geobacillus stearothermophilus, Gs-ldh (SEQ ID NO: 9), the two isoforms of the (L)-lactate dehydrogenase of Oryctalagus cuniculus, Oc-ldhA (SEQ ID NO: 11 and SEQ ID NO: 13), were amplified by PCR using the high-fidelity polymerase Phusion™ (Fermentas) and the primers listed in Table 1. Genomic DNAs of E. coli MG1655, L. lactis IL1403, and B. subtilis strain 168 were used as the template. The genes Oc-ldhA, and Gs-ldh were codon-optimized for expression in E. coli and synthesized by MWG Eurofins. The primers introduced restriction sites (Table 1) upstream of the start codon and downstream of the stop codon, respectively, facilitating the ligation of the digested PCR products into the corresponding sites of the pET28a+ (Novagen) expression vector using T4 DNA ligase (Fermentas). Ligation products were transformed into E. coli DH5a cells (NEB). […]

A further data set concerns CC(=O)C(=O)O. Put plainly: OHB/pyruvate reductase assay, Oc-LdhA. In kind it is biochemical, Oryctalagus cuniculus. The conditions noted are these: other: pH 7, 37° C., 0.25 mM NADH.
Excerpt: as §1

For “Oryctolagus cuniculus (printed: Oryctalagus cuniculus) (L)-lactate dehydrogenase Oc-LdhA, SEQ ID NO: 12 and SEQ ID NO: 14 (two isoforms) (Oryctolagus cuniculus)”, the Km was determined as 13 mM with O=C(O)C(=O)CCO and 1.5 mM in the data set with CC(=O)C(=O)O.

By Km is commonly meant the concentration of substrate that gives half-maximal velocity.

The record behind these values is patent US11505811B2, “Method for the preparation of 2,4-dihydroxybutyrate” (ADISSEO FRANCE S.A.S., priority 2012, dated 2022).
